This data set relates to MS2 coat protein. Put plainly: apparent KD of MS2 coat protein; designed switch direction (-1 OFF switch, 1 ON switch): -1; higher = weaker reporter binding. The gist of the method: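 An oligonucleotide input, 200 uM small-molecule ligand, or no input was present during titration of SNAP-549-labelled MS2 coat protein, which was doubled from 0.7 or 1.5 nM to 3 µM. Designed RNA switches had been transcribed on Illumina chips by stalled E. coli RNA polymerase. Apparent KD per design is the median over clusters of curves fitted to normalised cluster fluorescence.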

[1] abbreviates: input ligand: microRNA oligo, concentration not stated.
[2] abbreviates: Eterna round: R95, input ligand: FMN 200 uM.
Setting [3] is: Eterna round: R95, input ligand: microRNA oligo, concentration not stated.
[4] abbreviates: Eterna round: R95, input ligand: none.

Regarding “CCGGCUUAGGAGGAUAUCAGAGUCGAAAGACUCUGAGAAGGCCUAACAUGAGGAUCACCCAUGUGUCCUACCGG [Mod of Eli 7 - Jieux - Exclusion 6] (Eterna round: R97, puzzle: Exclusion 6)”, the “apparent KD of MS2 coat protein” value runs as follows: (input ligand: FMN 200 uM) 81.5 nM; (input ligand: none) 25.1 nM.

For “CCGGUUGGCGCAGGAUAUACAUGAGGAUCACCCAUGUUCAUGAGCAUCAGCCAUGAGUUUUUGUUGUAGAAGGGUGGCCCGGCC (Eterna round: R96, puzzle: Exclusion NG 2)”, the “apparent KD of MS2 coat protein” value runs as follows: (input ligand: FMN 200 uM) 19.6 nM; under setting [1], 15.6 nM; (input ligand: none) 23.5 nM.

As to “CCGUCGAUAGGAUAUACUCCAAGCGAUGGGUGAACCUUUGGACUUGAGGAUCACCCAAGUAGAAGGAUUGACUU [Aorbete] (Eterna round: R97, puzzle: Exclusion 2)”, the “apparent KD of MS2 coat protein” value was found to be 122 nM (input ligand: FMN 200 uM) and 71 nM (input ligand: none).

Take “CCUACUUACUAGGAUAUCAGAGUCGAAAGACUCUGAGAAGGAGUAACAUGAGGAUCACCCAUGUGUCCUAUAGG [Mod of Eli 11 - Jieux - Exclusion 6] (Eterna round: R97, puzzle: Exclusion 6)”: the “apparent KD of MS2 coat protein” value reads like this: (input ligand: FMN 200 uM) 52.2 nM; (input ligand: none) 24.2 nM.

“CCUAGACAUGAGGAUCACCCAUGUGAGGAUAUGAUGCGAAUAAAGAAAGAAGAAAGCAUCAGAAGGCACAUAUG [Fiskers Ex 1 - 2] (puzzle: Exclusion 1)”: the “apparent KD of MS2 coat protein” value came to 130 nM under setting [2], 41.2 nM under setting [3] and 49.4 nM under setting [4].

Consider “CCUAGUUGGUAAGGAUAUCCUACACUGUUCUGACCCGUGCAAGCUACAUGAGGAUCACCCAUGUGGGAGAAGGUGCGUCAACGC [Design 12] (Eterna round: R96, puzzle: Exclusion NG 2)”, for which the “apparent KD of MS2 coat protein” value by setting is: (input ligand: FMN 200 uM) 29 nM; under setting [1], 25.3 nM; (input ligand: none) 29.2 nM.

In the case of “CCUAUGUGAGGAUAUGGUGUUGGCCACAAGGAAAAGCUCCUCCAGAAGGCACAUGAGGAUCACCCAUGUCGUGG [Jolly's Folly 25 - Jieux - Exclusion 4] (Eterna round: R96, puzzle: Exclusion 4)”, the “apparent KD of MS2 coat protein” value is, setting by setting: (input ligand: FMN 200 uM) 212 nM; under setting [1], 48.2 nM; (input ligand: none) 61.1 nM.

Consider “CCUCAUGGGCAGGAUAUCAGUCGAAAGUUUAUAUGAGAAGGGCCAACAUGAGGAUCACCCAUGUAAUCCCUGAC [EX6 C.14] (Eterna round: R97, puzzle: Exclusion 6)”, for which the “apparent KD of MS2 coat protein” value runs as follows: (input ligand: FMN 200 uM) 66.7 nM; (input ligand: none) 27.8 nM.

In the case of “CCUCUACAUGAGGAUCACCCAUGUGAGGAUAUAGACCGGCCUAACGCGGGCUCGGGAGCUAGAAGGCACAUAGA [EX1 C.7] (Eterna round: R97, puzzle: Exclusion 1)”, the “apparent KD of MS2 coat protein” value (input ligand: FMN 200 uM) was 70.8 nM and the “apparent KD of MS2 coat protein” value (input ligand: none) was determined as 21.8 nM.

For “CCUCUACAUGAGGAUCACCCAUGUGAGGAUAUCUCGGAACAACCACUUAAGGCACUCCAGAGAAGGCACGUGUA [Onsote] (puzzle: Exclusion 1)”, the “apparent KD of MS2 coat protein” value under setting [3] was 15.5 nM.

As to “CCUUAAAUUGUAAGGAUAUUAAAGCUGCUGAGUUAUAAGAAGGUACAUGAGGAUCACCCAUGUUCGGCAGGGUC [Qulexeri] (puzzle: Brourd's mod of Exclusion 4)”, the “apparent KD of MS2 coat protein” value under setting [3] worked out at 17.1 nM.

“CCUUAGGGAGGAUAUACAUGAGGAUCACCCAUGUACCGCGGCGCGUUCACACGGGUGGGUAGAAGGCCCUCACU [Colors] (Eterna round: R97, puzzle: Exclusion 3)”: the “apparent KD of MS2 coat protein” value is, setting by setting: (input ligand: FMN 200 uM) 463 nM; (input ligand: none) 540 nM.

For the sequence “CCUUAGUAAGGAUAUCAGCUUAUAGAGUUGGUAAUGAGAGCUGAGAAGGUACAUGAGGAUCACCCAUGUUAGUU [JL Zatite mod 4] (puzzle: Exclusion 4)”, the “apparent KD of MS2 coat protein” value under setting [3] stood at 20.3 nM.

With “CCUUGACAUGAGGAUCACCCAUGUGAGGAUAUCCUGCGAGGAUCAAAAGAUCCUCGUGGGAGAAGGCAUAUGAA [Omei Ex1 A7] (Eterna round: R97, puzzle: Exclusion 1)”, the “apparent KD of MS2 coat protein” value was determined as 32.6 nM (input ligand: FMN 200 uM) and 16.7 nM (input ligand: none).

On to “CCUUGACAUGAGGAUCACCCAUGUUAGGAUAUAACAUUUGACACUACAGUAUGAAGUGUUAGAAGGGAUAUGGG [-22.5, -21 kcal, A 32%] (Eterna round: R97, puzzle: Exclusion 1)”, for which the “apparent KD of MS2 coat protein” value is 39.4 nM (input ligand: FMN 200 uM) and 29.8 nM (input ligand: none).

As for “CCUUGUGUUGAGGAUAUGCGCCGGCUCGCUGGCGCAGAAGGCGGCACAUGAGGAUCACCCAUGUCAGUUCGCGU [salish99_ex6_r004_014] (Eterna round: R97, puzzle: Exclusion 6)”, the “apparent KD of MS2 coat protein” value (input ligand: FMN 200 uM) worked out at 431 nM and the “apparent KD of MS2 coat protein” value (input ligand: none) came out at 29.8 nM.

As for “CCUUUGUCAGGAUAUCGAAAAGGGAGGCCAAAGGCCUCCGGUGAGAAGGGACAUGAGGAUCACCCAUGUGAAAA [Soonbidibe] (puzzle: Exclusion 4)”, the “apparent KD of MS2 coat protein” value under setting [3] was 57.5 nM.

As to “CCUUUGUGAGGAUAUCGUUGGCCAGACAUGAGGAUCACCCAUGUGGCUGGAACUCAUGGACGAGAAGGCACCUCUU [Eternabot (L2) Solution 52] (Eterna round: R97, puzzle: Exclusion 5)”, the “apparent KD of MS2 coat protein” value is, setting by setting: (input ligand: FMN 200 uM) 338 nM; (input ligand: none) 399 nM.

As to “CGAAAGUUAGGAUAUGCCCGGAACGACAUGAGGAUCACCCAUGUUAGCAAGGGACCUGGCGCAGAAGGAACGGAUA [EX5 C.20] (Eterna round: R97, puzzle: Exclusion 5)”, the “apparent KD of MS2 coat protein” value is, setting by setting: (input ligand: FMN 200 uM) 20.2 nM; (input ligand: none) 19.3 nM.

On to “CGAAGUAGAAACCGAUCCUACAUGAGGAUCACCCAUGUAGCAAGACGUGCACGCGAAGCUCGUCAGACUACCAGAAA [salish99_TOv1_r3_016] (puzzle: Sensor v3, turn-off variant 1)”, for which the “apparent KD of MS2 coat protein” value runs as follows: under setting [2], 200 nM; under setting [3], 213 nM; under setting [4], 304 nM.

As to “CGACCACAUGUAAACUGACACAUGAGGAUCACCCAUGUCAAGCUACGUUAGACUAAGCUCGCUACUACUCGUCUUAA [Eternabot (L2) Solution 4] (Eterna round: R97, puzzle: Sensor, turn-off variant 1)”, the “apparent KD of MS2 coat protein” value runs as follows: (input ligand: FMN 200 uM) 66.8 nM; (input ligand: none) 69.8 nM.

As for “CGAGCUCAUGUGAGGAUAUACCUAUGGAUACAUAGGUAGAAGGCACAUGAGGAUCACCCAUGUCCUAGAGCUCG [jl-bmx4-4.58] (Eterna round: R97, puzzle: Brourd's mod of Exclusion 4)”, the “apparent KD of MS2 coat protein” value is, setting by setting: (input ligand: FMN 200 uM) 821 nM; (input ligand: none) 138 nM.

Take “CGAGGUAGAGGAUAUACGUGGAUGUAAAUUCAUGUUAAUCUACAUGAGGAUCACCCAUGUAGAAGGCUAUAGCG [JR_Ex2_Sub076] (Eterna round: R97, puzzle: Exclusion 2)”: the “apparent KD of MS2 coat protein” value was found to be 27.8 nM (input ligand: FMN 200 uM) and 30.6 nM (input ligand: none).

On to “CGAUGCAAAGUAAGGAUAUGCUUCCGGAAACGGAGGCAGAAGGUACAUGAGGAUCACCCAUGUUAAAAGCAUCG [Explosion 3 - Jieux - Brourd's mod of Exclusion 4] (Eterna round: R97, puzzle: Brourd's mod of Exclusion 4)”, for which the “apparent KD of MS2 coat protein” value came to 16.3 nM (input ligand: FMN 200 uM) and 14.2 nM (input ligand: none).

(Values after the supplement of paper PMC9170038.)
